This test concerns the target immunoglobulin G (IgG) obtained from human serum (human). Put plainly: human serum IgG (2 mg/mL) bound to Protein A on latex beads, washed, read by SDS-PAGE.

Data on one substance can be found in patent publication US20250250321A1.

As for “Protein A polymer (UniStac linear multimeric polymer of Protein A) immobilized on latex beads”, the increase of binding activity compared to beads with the Protein A monomer was above 15%.
